Data from paper PMC4156824 (Molecular cell, 2014).

B1: Mcm2 (natural protein, S. cerevisiae, UniProt P29469 1-868, looked up)
chain: MSDNRRRRREEDDSDSENELPPSSPQQHFRGGMNPVSSPIGSPDMINPEGDDNEVDDVPDIDEVEEQMNEVDLMDDNMYEDYAADHNRDRYDPDQVDDREQQELSLSERRRIDAQLNERDRLLRNVAYIDDEDEEQEGAAQLDEMGLPVQRRRRRRQYEDLENSDDDLLSDMDIDPLREELTLESLSNVKANSYSEWITQPNVSRTIARELKSFLLEYTDETGRSVYGARIRTLGEMNSESLEVNYRHLAESKAILALFLAKCPEEMLKIFDLVAMEATELHYPDYARIHSEIHVRISDFPTIYSLRELRESNLSSLVRVTGVVTRRTGVFPQLKYVKFNCLKCGSILGPFFQDSNEEIRISFCTNCKSKGPFRVNGEKTVYRNYQRVTLQEAPGTVPPGRLPRHREVILLADLVDVSKPGEEVEVTGIYKNNYDGNLNAKNGFPVFATIIEANSIKRREGNTANEGEEGLDVFSWTEEEEREFRKISRDRGIIDKIISSMAPSIYGHRDIKTAVACSLFGGVPKNVNGKHSIRGDINVLLLGDPGTAKSQILKYVEKTAHRAVFATGQGASAVGLTASVRKDPITKEWTLEGGALVLADKGVCLIDEFDKMNDQDRTSIHEAMEQQSISISKAGIVTTLQARCSIIAAANPNGGRYNSTLPLAQNVSLTEPILSRFDILCVVRDLVDEEADERLATFVVDSHVRSHPENDEDREGEELKNNGESAIEQGEDEINEQLNARQRRLQRQRKKEEEISPIPQELLMKYIHYARTKIYPKLHQMDMDKVSRVYADLRRESISTGSFPITVRHLESILRIAESFAKMRLSEFVSSYDLDRAIKVVVDSFVDAQKVSVRRQLRRSFAIYTLGH
B2: Mcm7 (natural protein, S. cerevisiae, UniProt P38132 1-845, looked up)
chain: MSAALPSIQLPVDYNNLFNEITDFLVTFKQDTLSSDATRNENEDENLDAENIEQHLLEKGPKYMAMLQKVANRELNSVIIDLDDILQYQNEKFLQGTQADDLVSAIQQNANHFTELFCRAIDNNMPLPTKEIDYKDDVLDVILNQRRLRNERMLSDRTNEIRSENLMDTTMDPPSSMNDALREVVEDETELFPPNLTRRYFLYFKPLSQNCARRYRKKAISSKPLSVRQIKGDFLGQLITVRGIITRVSDVKPAVEVIAYTCDQCGYEVFQEVNSRTFTPLSECTSEECSQNQTKGQLFMSTRASKFSAFQECKIQELSQQVPVGHIPRSLNIHVNGTLVRSLSPGDIVDVTGIFLPAPYTGFKALKAGLLTETYLEAQFVRQHKKKFASFSLTSDVEERVMELITSGDVYNRLAKSIAPEIYGNLDVKKALLLLLVGGVDKRVGDGMKIRGDINVCLMGDPGVAKSQLLKAICKISPRGVYTTGKGSSGVGLTAAVMKDPVTDEMILEGGALVLADNGICCIDEFDKMDESDRTAIHEVMEQQTISISKAGINTTLNARTSILAAANPLYGRYNPRLSPLDNINLPAALLSRFDILFLMLDIPSRDDDEKLAEHVTYVHMHNKQPDLDFTPVEPSKMREYIAYAKTKRPVMSEAVNDYVVQAYIRLRQDSKREMDSKFSFGQATPRTLLGIIRLSQALAKLRLADMVDIDDVEEALRLVRVSKESLYQETNKSKEDESPTTKIFTIIKKMLQETGKNTLSYENIVKTVRLRGFTMLQLSNCIQEYSYLNVWHLINEGNTLKFVDDGTMDTDQEDSLVSTPKLAPQTTASANVSAQDSDIDLQDA
B3: Mcm4 (natural protein, S. cerevisiae, UniProt P30665 1-933, looked up)
chain: MSQQSSSPTKEDNNSSSPVVPNPDSVPPQLSSPALFYSSSSSQGDIYGRNNSQNLSQGEGNIRAAIGSSPLNFPSSSQRQNSDVFQSQGRQGRIRSSASASGRSRYHSDLRSDRALPTSSSSLGRNGQNRVHMRRNDIHTSDLSSPRRIVDFDTRSGVNTLDTSSSSAPPSEASEPLRIIWGTNVSIQECTTNFRNFLMSFKYKFRKILDEREEFINNTTDEELYYIKQLNEMRELGTSNLNLDARNLLAYKQTEDLYHQLLNYPQEVISIMDQTIKDCMVSLIVDNNLDYDLDEIETKFYKVRPYNVGSCKGMRELNPNDIDKLINLKGLVLRSTPVIPDMKVAFFKCNVCDHTMAVEIDRGVIQEPARCERIDCNEPNSMSLIHNRCSFADKQVIKLQETPDFVPDGQTPHSISLCVYDELVDSCRAGDRIEVTGTFRSIPIRANSRQRVLKSLYKTYVDVVHVKKVSDKRLDVDTSTIEQELMQNKVDHNEVEEVRQITDQDLAKIREVAAREDLYSLLARSIAPSIYELEDVKKGILLQLFGGTNKTFTKGGRYRGDINILLCGDPSTSKSQILQYVHKITPRGVYTSGKGSSAVGLTAYITRDVDTKQLVLESGALVLSDGGVCCIDEFDKMSDSTRSVLHEVMEQQTISIAKAGIITTLNARSSILASANPIGSRYNPNLPVTENIDLPPPLLSRFDLVYLVLDKVDEKNDRELAKHLTNLYLEDKPEHISQDDVLPVEFLTMYISYAKEHIHPIITEAAKTELVRAYVGMRKMGDDSRSDEKRITATTRQLESMIRLAEAHAKMKLKNVVELEDVQEAVRLIRSAIKDYATDPKTGKIDMNLVQTGKSVIQRKLQEDLSREIMNVLKDQASDSMSFNELIKQINEHSQDRVESSDIQEALSRLQQEDKVIVLGEGVRRSVRLNNRV
B4: Mcm3 (Flag-tagged subunit of Mcm2-7) (natural protein, S. cerevisiae, UniProt P24279 1-971, looked up)
chain: MEGSTGFDGDATTFFAPDAVFGDRVRRFQEFLDTFTSYRDSVRSIQVYNSNNAANYNDDQDDADERDLLGDDDGDDLEKEKKAASSTSLNILPHRIIISLDDLREFDRSFWSGILVEPAYFIPPAEKALTDLADSMDDVPHPNASAVSSRHPWKLSFKGSFGAHALSPRTLTAQHLNKLVSVEGIVTKTSLVRPKLIRSVHYAAKTGRFHYRDYTDATTTLTTRIPTPAIYPTEDTEGNKLTTEYGYSTFIDHQRITVQEMPEMAPAGQLPRSIDVILDDDLVDKTKPGDRVNVVGVFKSLGAGGMNQSNSNTLIGFKTLILGNTVYPLHARSTGVAARQMLTDFDIRNINKLSKKKDIFDILSQSLAPSIYGHDHIKKAILLMLMGGVEKNLENGSHLRGDINILMVGDPSTAKSQLLRFVLNTASLAIATTGRGSSGVGLTAAVTTDRETGERRLEAGAMVLADRGVVCIDEFDKMTDVDRVAIHEVMEQQTVTIAKAGIHTTLNARCSVIAAANPVFGQYDVNRDPHQNIALPDSLLSRFDLLFVVTDDINEIRDRSISEHVLRTHRYLPPGYLEGEPVRERLNLSLAVGEDADINPEEHSNSGAGVENEGEDDEDHVFEKFNPLLQAGAKLAKNKGNYNGTEIPKLVTIPFLRKYVQYAKERVIPQLTQEAINVIVKNYTDLRNDDNTKKSPITARTLETLIRLATAHAKVRLSKTVNKVDAKVAANLLRFALLGEDIGNDIDEEESEYEEALSKRSPQKSPKKRQRVRQPASNSGSPIKSTPRRSTASSVNATPSSARRILRFQDDEQNAGEDDNDIMSPLPADEEAELQRRLQLGLRVSPRRREHLHAPEEGSSGPLTEVGTPRLPNVSSAGQDDEQQQSVISFDNVEPGTISTGRLSLISGIIARLMQTEIFEEESYPVASLFERINEELPEEEKFSAQEYLAGLKIMSDRNNLMVADDKVWRV

Experiments:
[1] = biological target: B4; test: co-IP
Mcm6 = Mcm6 (S. cerevisiae, UniProt P53091 1-1017); test: co-IP
Sequence of Mcm6 (P53091 whole entry): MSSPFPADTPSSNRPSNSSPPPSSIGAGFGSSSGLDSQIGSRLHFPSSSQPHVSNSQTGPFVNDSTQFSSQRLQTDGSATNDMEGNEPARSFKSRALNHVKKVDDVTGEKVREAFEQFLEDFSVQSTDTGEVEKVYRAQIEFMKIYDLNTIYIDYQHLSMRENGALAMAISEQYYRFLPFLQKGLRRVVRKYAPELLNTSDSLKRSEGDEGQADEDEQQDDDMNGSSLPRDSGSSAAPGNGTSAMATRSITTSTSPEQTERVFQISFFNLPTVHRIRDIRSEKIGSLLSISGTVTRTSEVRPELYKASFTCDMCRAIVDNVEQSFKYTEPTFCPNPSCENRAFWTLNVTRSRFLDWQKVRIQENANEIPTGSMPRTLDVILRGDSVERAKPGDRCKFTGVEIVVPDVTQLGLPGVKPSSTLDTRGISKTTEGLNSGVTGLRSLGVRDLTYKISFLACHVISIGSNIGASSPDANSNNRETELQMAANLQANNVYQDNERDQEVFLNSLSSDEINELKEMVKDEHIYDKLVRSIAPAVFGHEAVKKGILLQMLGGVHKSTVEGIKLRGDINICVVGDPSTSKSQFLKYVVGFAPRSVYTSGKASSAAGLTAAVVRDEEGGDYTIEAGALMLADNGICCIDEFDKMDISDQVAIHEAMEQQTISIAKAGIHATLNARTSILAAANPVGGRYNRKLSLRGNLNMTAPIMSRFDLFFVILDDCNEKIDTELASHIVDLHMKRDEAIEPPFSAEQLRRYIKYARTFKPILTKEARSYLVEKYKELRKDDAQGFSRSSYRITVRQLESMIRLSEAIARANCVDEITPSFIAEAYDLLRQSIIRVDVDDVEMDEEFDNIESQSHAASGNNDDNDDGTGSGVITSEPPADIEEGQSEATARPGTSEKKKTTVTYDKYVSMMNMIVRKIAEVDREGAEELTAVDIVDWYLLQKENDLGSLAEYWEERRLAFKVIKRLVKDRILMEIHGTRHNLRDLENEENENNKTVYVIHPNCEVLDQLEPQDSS

binding result [1] | binding result (Mcm6) | Binder
binds | – | B1
binds | – | B2
binds | – | B3
– | binds | B4
